Source: patent publication US20180273587A1 (AILERON THERAPEUTICS, published 2018)
Positions of bridges follow the written chain, without caps; N, C: chain ends. Non-standard residues stand in square brackets, D forms with d. 2Nal = N[C@@H](Cc1ccc2ccccc2c1)C(=O)O; hPhe = N[C@@H](CCc1ccccc1)C(=O)O; R8 = C=CCCCCCC[C@@](C)(N)C(=O)O; S5 = C=CCCC[C@](C)(N)C(=O)O

Key:
Experiment in all cases: Ki; method not stated; unit not printed (nM per Table 6)
BCL-2 = biological target: T1, BCL-2 (UniProt P10415 1-217, limits assumed)
T1 construct: Target of the Ki columns

BCL-XL = biological target: T2, BCL-XL (UniProt Q07817 1-209)
T2 construct: Target of the Ki columns

MCL-1 = biological target: T3, MCL-1 (UniProt Q07820 172-327, limits assumed)
T3 construct: Target of the Ki columns; also called Myeloid cell leukemia 1
T3 sequence (Q07820 172-327 limits assumed): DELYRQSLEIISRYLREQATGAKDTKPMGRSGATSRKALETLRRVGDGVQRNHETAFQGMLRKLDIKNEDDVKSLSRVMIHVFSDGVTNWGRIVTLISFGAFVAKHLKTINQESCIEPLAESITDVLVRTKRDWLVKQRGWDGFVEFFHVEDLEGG

T1 sequence (P10415 1-217 limits assumed): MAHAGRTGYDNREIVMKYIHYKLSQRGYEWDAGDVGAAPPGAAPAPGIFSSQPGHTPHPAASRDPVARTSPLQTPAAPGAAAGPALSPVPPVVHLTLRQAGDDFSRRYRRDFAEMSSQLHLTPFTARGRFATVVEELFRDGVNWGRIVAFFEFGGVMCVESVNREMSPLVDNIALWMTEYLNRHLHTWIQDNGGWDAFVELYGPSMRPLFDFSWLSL
T2 sequence (Q07817 1-209): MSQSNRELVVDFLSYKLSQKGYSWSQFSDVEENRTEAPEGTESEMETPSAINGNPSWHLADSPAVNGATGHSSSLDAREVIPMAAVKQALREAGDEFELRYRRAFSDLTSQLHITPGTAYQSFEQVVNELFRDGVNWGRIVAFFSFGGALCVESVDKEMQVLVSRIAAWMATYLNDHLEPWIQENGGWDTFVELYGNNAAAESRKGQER

B1: SEQ ID NO: 1743 (peptide)
peptide: Ac-IWIAQALR[R8]IGDA[hPhe]N[S5]YYA-NH2
modifications: staple 9-16
SMILES: CC[C@H](C)[C@H](NC(C)=O)C(=O)N[C@@H](Cc1c[nH]c2ccccc12)C(=O)N[C@H](C(=O)N[C@@H](C)C(=O)N[C@@H](CCC(N)=O)C(=O)N[C@@H](C)C(=O)N[C@@H](CC(C)C)C(=O)N[C@@H](CCCNC(=N)N)C(=O)N[C@]1(C)CCCCCCC=CCCC[C@@](C)(C(=O)N[C@@H](Cc2ccc(O)cc2)C(=O)N[C@@H](Cc2ccc(O)cc2)C(=O)N[C@@H](C)C(N)=O)NC(=O)[C@H](CC(N)=O)NC(=O)[C@H](CCc2ccccc2)NC(=O)[C@H](C)NC(=O)[C@H](CC(=O)O)NC(=O)CNC(=O)[C@H]([C@@H](C)CC)NC1=O)[C@@H](C)CC
B1 was tested, and the Ki (BCL-2) was 38.9 nM, the Ki (BCL-XL) was 16.6 nM and the Ki (MCL-1) was 2.7 nM.

B2: SEQ ID NO: 1736 (peptide)
peptide: Ac-IWIALALR[R8]IGDAFN[S5]YYA-NH2
modifications: staple 9-16
SMILES: CC[C@H](C)[C@H](NC(C)=O)C(=O)N[C@@H](Cc1c[nH]c2ccccc12)C(=O)N[C@H](C(=O)N[C@@H](C)C(=O)N[C@@H](CC(C)C)C(=O)N[C@@H](C)C(=O)N[C@@H](CC(C)C)C(=O)N[C@@H](CCCNC(=N)N)C(=O)N[C@]1(C)CCCCCCC=CCCC[C@@](C)(C(=O)N[C@@H](Cc2ccc(O)cc2)C(=O)N[C@@H](Cc2ccc(O)cc2)C(=O)N[C@@H](C)C(N)=O)NC(=O)[C@H](CC(N)=O)NC(=O)[C@H](Cc2ccccc2)NC(=O)[C@H](C)NC(=O)[C@H](CC(=O)O)NC(=O)CNC(=O)[C@H]([C@@H](C)CC)NC1=O)[C@@H](C)CC
B2 was tested, and the Ki (BCL-2) was 75.8 nM, the Ki (BCL-XL) was 37.9 nM and the Ki (MCL-1) was 11.6 nM.

B3: SEQ ID NO: 1742 (peptide)
peptide: Ac-IWIAQALR[R8]IGDAWN[S5]YYA-NH2
modifications: staple 9-16
SMILES: CC[C@H](C)[C@H](NC(C)=O)C(=O)N[C@@H](Cc1c[nH]c2ccccc12)C(=O)N[C@H](C(=O)N[C@@H](C)C(=O)N[C@@H](CCC(N)=O)C(=O)N[C@@H](C)C(=O)N[C@@H](CC(C)C)C(=O)N[C@@H](CCCNC(=N)N)C(=O)N[C@]1(C)CCCCCCC=CCCC[C@@](C)(C(=O)N[C@@H](Cc2ccc(O)cc2)C(=O)N[C@@H](Cc2ccc(O)cc2)C(=O)N[C@@H](C)C(N)=O)NC(=O)[C@H](CC(N)=O)NC(=O)[C@H](Cc2c[nH]c3ccccc23)NC(=O)[C@H](C)NC(=O)[C@H](CC(=O)O)NC(=O)CNC(=O)[C@H]([C@@H](C)CC)NC1=O)[C@@H](C)CC
With B3 the Ki (BCL-2) was 17.7 nM, the Ki (BCL-XL) was 14.5 nM and the Ki (MCL-1) was 2.3 nM.

B4: SEQ ID NO: 1727 (peptide)
peptide: Ac-IHIAAALR[R8]IGDAFN[S5]YYA-NH2
modifications: staple 9-16
SMILES: CC[C@H](C)[C@H](NC(C)=O)C(=O)N[C@@H](Cc1c[nH]cn1)C(=O)N[C@H](C(=O)N[C@@H](C)C(=O)N[C@@H](C)C(=O)N[C@@H](C)C(=O)N[C@@H](CC(C)C)C(=O)N[C@@H](CCCNC(=N)N)C(=O)N[C@]1(C)CCCCCCC=CCCC[C@@](C)(C(=O)N[C@@H](Cc2ccc(O)cc2)C(=O)N[C@@H](Cc2ccc(O)cc2)C(=O)N[C@@H](C)C(N)=O)NC(=O)[C@H](CC(N)=O)NC(=O)[C@H](Cc2ccccc2)NC(=O)[C@H](C)NC(=O)[C@H](CC(=O)O)NC(=O)CNC(=O)[C@H]([C@@H](C)CC)NC1=O)[C@@H](C)CC
B4 gave a Ki (BCL-2) of 43 nM, a Ki (BCL-XL) of 19.5 nM and a Ki (MCL-1) of 6.6 nM.

B5: SEQ ID NO: 1731 (peptide)
peptide: Ac-IFIAAALR[R8]IGDAFN[S5]YYA-NH2
modifications: staple 9-16
SMILES: CC[C@H](C)[C@H](NC(C)=O)C(=O)N[C@@H](Cc1ccccc1)C(=O)N[C@H](C(=O)N[C@@H](C)C(=O)N[C@@H](C)C(=O)N[C@@H](C)C(=O)N[C@@H](CC(C)C)C(=O)N[C@@H](CCCNC(=N)N)C(=O)N[C@]1(C)CCCCCCC=CCCC[C@@](C)(C(=O)N[C@@H](Cc2ccc(O)cc2)C(=O)N[C@@H](Cc2ccc(O)cc2)C(=O)N[C@@H](C)C(N)=O)NC(=O)[C@H](CC(N)=O)NC(=O)[C@H](Cc2ccccc2)NC(=O)[C@H](C)NC(=O)[C@H](CC(=O)O)NC(=O)CNC(=O)[C@H]([C@@H](C)CC)NC1=O)[C@@H](C)CC
For B5, the Ki (BCL-2) was 95.9 nM, the Ki (BCL-XL) was 45.3 nM and the Ki (MCL-1) was 10.2 nM.

B6: SEQ ID NO: 1729 (peptide)
peptide: Ac-INIAAALR[R8]IGDAFN[S5]YYA-NH2
modifications: staple 9-16
SMILES: CC[C@H](C)[C@H](NC(C)=O)C(=O)N[C@@H](CC(N)=O)C(=O)N[C@H](C(=O)N[C@@H](C)C(=O)N[C@@H](C)C(=O)N[C@@H](C)C(=O)N[C@@H](CC(C)C)C(=O)N[C@@H](CCCNC(=N)N)C(=O)N[C@]1(C)CCCCCCC=CCCC[C@@](C)(C(=O)N[C@@H](Cc2ccc(O)cc2)C(=O)N[C@@H](Cc2ccc(O)cc2)C(=O)N[C@@H](C)C(N)=O)NC(=O)[C@H](CC(N)=O)NC(=O)[C@H](Cc2ccccc2)NC(=O)[C@H](C)NC(=O)[C@H](CC(=O)O)NC(=O)CNC(=O)[C@H]([C@@H](C)CC)NC1=O)[C@@H](C)CC
With B6 the Ki (BCL-2) was 62.5 nM, the Ki (BCL-XL) was 37.3 nM and the Ki (MCL-1) was 11.2 nM.

B7: SEQ ID NO: 1730 (peptide)
peptide: Ac-ILIAAALR[R8]IGDAFN[S5]YYA-NH2
modifications: staple 9-16
SMILES: CC[C@H](C)[C@H](NC(C)=O)C(=O)N[C@@H](CC(C)C)C(=O)N[C@H](C(=O)N[C@@H](C)C(=O)N[C@@H](C)C(=O)N[C@@H](C)C(=O)N[C@@H](CC(C)C)C(=O)N[C@@H](CCCNC(=N)N)C(=O)N[C@]1(C)CCCCCCC=CCCC[C@@](C)(C(=O)N[C@@H](Cc2ccc(O)cc2)C(=O)N[C@@H](Cc2ccc(O)cc2)C(=O)N[C@@H](C)C(N)=O)NC(=O)[C@H](CC(N)=O)NC(=O)[C@H](Cc2ccccc2)NC(=O)[C@H](C)NC(=O)[C@H](CC(=O)O)NC(=O)CNC(=O)[C@H]([C@@H](C)CC)NC1=O)[C@@H](C)CC
In the case of B7, the Ki (BCL-2) is reported as 126 nM, the Ki (BCL-XL) is reported as 71.8 nM and the Ki (MCL-1) is reported as 10.2 nM.

B8: SEQ ID NO: 1732 (peptide)
peptide: Ac-I[2Nal]IAAALR[R8]IGDAFN[S5]YYA-NH2
modifications: staple 9-16
SMILES: CC[C@H](C)[C@H](NC(C)=O)C(=O)N[C@@H](Cc1ccc2ccccc2c1)C(=O)N[C@H](C(=O)N[C@@H](C)C(=O)N[C@@H](C)C(=O)N[C@@H](C)C(=O)N[C@@H](CC(C)C)C(=O)N[C@@H](CCCNC(=N)N)C(=O)N[C@]1(C)CCCCCCC=CCCC[C@@](C)(C(=O)N[C@@H](Cc2ccc(O)cc2)C(=O)N[C@@H](Cc2ccc(O)cc2)C(=O)N[C@@H](C)C(N)=O)NC(=O)[C@H](CC(N)=O)NC(=O)[C@H](Cc2ccccc2)NC(=O)[C@H](C)NC(=O)[C@H](CC(=O)O)NC(=O)CNC(=O)[C@H]([C@@H](C)CC)NC1=O)[C@@H](C)CC
notes: Row prints Ac-I2NalIAAALR$r8IGDAFN$YYA-NH2
With B8 the Ki (BCL-2) was 144 nM, the Ki (BCL-XL) was 55.3 nM and the Ki (MCL-1) was 13.7 nM.

B9: SEQ ID NO: 1728 (peptide)
peptide: Ac-ISIAAALR[R8]IGDAFN[S5]YYA-NH2
modifications: staple 9-16
SMILES: CC[C@H](C)[C@H](NC(C)=O)C(=O)N[C@@H](CO)C(=O)N[C@H](C(=O)N[C@@H](C)C(=O)N[C@@H](C)C(=O)N[C@@H](C)C(=O)N[C@@H](CC(C)C)C(=O)N[C@@H](CCCNC(=N)N)C(=O)N[C@]1(C)CCCCCCC=CCCC[C@@](C)(C(=O)N[C@@H](Cc2ccc(O)cc2)C(=O)N[C@@H](Cc2ccc(O)cc2)C(=O)N[C@@H](C)C(N)=O)NC(=O)[C@H](CC(N)=O)NC(=O)[C@H](Cc2ccccc2)NC(=O)[C@H](C)NC(=O)[C@H](CC(=O)O)NC(=O)CNC(=O)[C@H]([C@@H](C)CC)NC1=O)[C@@H](C)CC
With B9 the Ki (BCL-2) was 89.5 nM, the Ki (BCL-XL) was 56.2 nM and the Ki (MCL-1) was 15.3 nM.

B10: SEQ ID NO: 1733 (peptide)
peptide: Ac-IWISAALR[R8]IGDAFN[S5]YYA-NH2
modifications: staple 9-16
SMILES: CC[C@H](C)[C@H](NC(C)=O)C(=O)N[C@@H](Cc1c[nH]c2ccccc12)C(=O)N[C@H](C(=O)N[C@@H](CO)C(=O)N[C@@H](C)C(=O)N[C@@H](C)C(=O)N[C@@H](CC(C)C)C(=O)N[C@@H](CCCNC(=N)N)C(=O)N[C@]1(C)CCCCCCC=CCCC[C@@](C)(C(=O)N[C@@H](Cc2ccc(O)cc2)C(=O)N[C@@H](Cc2ccc(O)cc2)C(=O)N[C@@H](C)C(N)=O)NC(=O)[C@H](CC(N)=O)NC(=O)[C@H](Cc2ccccc2)NC(=O)[C@H](C)NC(=O)[C@H](CC(=O)O)NC(=O)CNC(=O)[C@H]([C@@H](C)CC)NC1=O)[C@@H](C)CC
B10 showed a Ki (BCL-2) of 117 nM, a Ki (BCL-XL) of 67.8 nM and a Ki (MCL-1) of 3.6 nM.

B11: SEQ ID NO: 1735 (peptide)
peptide: Ac-IWIFAALR[R8]IGDAFN[S5]YYA-NH2
modifications: staple 9-16
SMILES: CC[C@H](C)[C@H](NC(C)=O)C(=O)N[C@@H](Cc1c[nH]c2ccccc12)C(=O)N[C@H](C(=O)N[C@@H](Cc1ccccc1)C(=O)N[C@@H](C)C(=O)N[C@@H](C)C(=O)N[C@@H](CC(C)C)C(=O)N[C@@H](CCCNC(=N)N)C(=O)N[C@]1(C)CCCCCCC=CCCC[C@@](C)(C(=O)N[C@@H](Cc2ccc(O)cc2)C(=O)N[C@@H](Cc2ccc(O)cc2)C(=O)N[C@@H](C)C(N)=O)NC(=O)[C@H](CC(N)=O)NC(=O)[C@H](Cc2ccccc2)NC(=O)[C@H](C)NC(=O)[C@H](CC(=O)O)NC(=O)CNC(=O)[C@H]([C@@H](C)CC)NC1=O)[C@@H](C)CC
B11 showed a Ki (BCL-2) of 125 nM, a Ki (BCL-XL) of 110 nM and a Ki (MCL-1) of 17.2 nM.

B12: SEQ ID NO: 1734 (peptide)
peptide: Ac-IWILAALR[R8]IGDAFN[S5]YYA-NH2
modifications: staple 9-16
SMILES: CC[C@H](C)[C@H](NC(C)=O)C(=O)N[C@@H](Cc1c[nH]c2ccccc12)C(=O)N[C@H](C(=O)N[C@@H](CC(C)C)C(=O)N[C@@H](C)C(=O)N[C@@H](C)C(=O)N[C@@H](CC(C)C)C(=O)N[C@@H](CCCNC(=N)N)C(=O)N[C@]1(C)CCCCCCC=CCCC[C@@](C)(C(=O)N[C@@H](Cc2ccc(O)cc2)C(=O)N[C@@H](Cc2ccc(O)cc2)C(=O)N[C@@H](C)C(N)=O)NC(=O)[C@H](CC(N)=O)NC(=O)[C@H](Cc2ccccc2)NC(=O)[C@H](C)NC(=O)[C@H](CC(=O)O)NC(=O)CNC(=O)[C@H]([C@@H](C)CC)NC1=O)[C@@H](C)CC
B12 showed a Ki (BCL-2) of 170 nM, a Ki (BCL-XL) of 96.2 nM and a Ki (MCL-1) of 19.7 nM.
